Measurements as given in patent US20150218257A1 (published 2015).

B1: 1443_C16 (PG16) human monoclonal antibody (antibody, V domains shown)
VH: QEQLVESGGGVVQPGGSLRLSCLASGFTFHKYGMHWVRQAPGKGLEWVALISDDGMRKYHSDSMWGRVTISRDNSKNTLYLQFSSLKVEDTAMFFCAREAGGPIWHDDVKYYDFNDGYYNYHYMDVWGKGTTVTVSS
VL: QSALTQPASVSGSPGQTITISCNGTSSDVGGFDSVSWYQQSPGKAPKVMVFDVSHRPSGISNRFSGSKSGNTASLTISGLHIEDEGDYFCSSLTDRSHRIFGGGTKVTVLG
B2: 1496_C09 (PG9) human monoclonal antibody (antibody, V domains shown)
VH: QRLVESGGGVVQPGSSLRLSCAASGFDFSRQGMHWVRQAPGQGLEWVAFIKYDGSEKYHADSVWGRLSISRDNSKDTLYLQMNSLRVEDTATYFCVREAGGPDYRNGYNYYDFYDGYYNYHYMDVWGKGTTVTVSS
VL: QSALTQPASVSGSPGQSITISCNGTSNDVGGYESVSWYQQHPGKAPKVVIYDVSKRPSGVSNRFSGSKSGNTASLTISGLQAEDEGDYYCKSLTSTRRRVFGTGTKLTVLG

Legend:
[1] = target: HIV-1 92RW020 Env on pseudovirus (HIV-1 strain 92RW020); assay: cell-based or functional assay
[2] = target: HIV-1 JR-FL(E168K) Env on pseudovirus (HIV-1 strain JR-FL); assay: cell-based or functional assay
[3] = target: HIV-1 ADA Env (gp160), on transfected 293 cells or on ADA pseudovirus (HIV-1 strain ADA); assay: cell-based or functional assay
[4] = target: T1, HIV-1 YU2 gp160 expressed on the surface of transfected 293/293T cells (HIV-1 strain YU2, UniProt P35961 32-843); assay: binding to YU2 gp160 on the cell surface (FIG. 7)
T1 construct: whole, on cells

Binder	IC50 (ug/ml), pseudovirus neutralisation, TZM-bl assay [1] [µg/mL]	IC50 (ug/ml), pseudovirus neutralisation, TZM-bl assay [2] [µg/mL]	IC50 (ug/ml), pseudovirus neutralisation, TZM-bl assay [3] [µg/mL]	binding result [4]
B1	0.09	0.006	0.004	binds
B2	0.1	–	0.2	–
